The values that follow come from the Human Domainome abundance scans (Beltran et al. 2025).

The chains are these.
B1: Zinc finger homeobox protein 3, residues 2244 to 2299; numbered along this chain, Q15911 (parent)
chain: SSRTRFTDYQLRVLQDFFDANAYPKDDEFEQLSNLLNLPTRVIVVWFQNARQKARK

± gives the uncertainty stated by the source.

In the data set the parent is B1. The experiment in a line: abundance fitness (aPCA) (normalised: wild type 0, dead -1); higher = more abundant; growth selection in yeast, the domain comes from the species named. The settings on record: Homo sapiens.
As for SSRTRFTDYQLRVLQDFFDANAYWKDDEFEQLSNLLNLPTRVIVVWFQNARQKARK [P24W], the abundance fitness is -0.381 ± 0.19.

For the variant SSRTRFTDYQLRVLQDFFDANAYVKDDEFEQLSNLLNLPTRVIVVWFQNARQKARK [P24V], the abundance fitness is -0.657 ± 0.22.

On to SSRTRFTDYQLRVLQDFFDANAYTKDDEFEQLSNLLNLPTRVIVVWFQNARQKARK [P24T], for which the abundance fitness was -0.856 ± 0.35.

SSRTRFTDYQLRVLQDFFDANAYFKDDEFEQLSNLLNLPTRVIVVWFQNARQKARK [P24F]: the abundance fitness is -0.533 ± 0.37.

For SSRTRFTDYQLRVLQDFFDANAYRKDDEFEQLSNLLNLPTRVIVVWFQNARQKARK [P24R], the abundance fitness was -0.633 ± 0.12.

In the case of SSRTRFTDYQLRVLQDFFDANAYGKDDEFEQLSNLLNLPTRVIVVWFQNARQKARK [P24G], the abundance fitness was -1.24 ± 0.28.

Take SSRTRFTDYQLRVLQDFFDANAYNKDDEFEQLSNLLNLPTRVIVVWFQNARQKARK [P24N]: the abundance fitness was -0.922 ± 0.28.

For SSRTRFTDYQLRVLQDFFDANAYSKDDEFEQLSNLLNLPTRVIVVWFQNARQKARK [P24S], the abundance fitness was -0.734 ± 0.27.

Take SSRTRFTDYQLRVLQDFFDANAYHKDDEFEQLSNLLNLPTRVIVVWFQNARQKARK [P24H]: the abundance fitness was -0.927 ± 0.43.

On to SSRTRFTDYQLRVLQDFFDANAYAKDDEFEQLSNLLNLPTRVIVVWFQNARQKARK [P24A], for which the abundance fitness was -0.555 ± 0.19.

As for SSRTRFTDYQLRVLQDFFDANAYPKDVEFEQLSNLLNLPTRVIVVWFQNARQKARK [D27V], the abundance fitness was -0.215 ± 0.073.

With SSRTRFTDYQLRVLQDFFDANAYPKDQEFEQLSNLLNLPTRVIVVWFQNARQKARK [D27Q], the abundance fitness is -0.121 ± 0.11.

Turning to SSRTRFTDYQLRVLQDFFDANAYPKDFEFEQLSNLLNLPTRVIVVWFQNARQKARK [D27F], the abundance fitness was -0.233 ± 0.15.

Consider SSRTRFTDYQLRVLQDFFDANAYPKDLEFEQLSNLLNLPTRVIVVWFQNARQKARK [D27L], for which the abundance fitness was -0.17 ± 0.074.

On to SSRTRFTDYQLRVLQDFFDANAYPKDEEFEQLSNLLNLPTRVIVVWFQNARQKARK [D27E], for which the abundance fitness is -0.084 ± 0.085.

Take SSRTRFTDYQLRVLQDFFDANAYPKDSEFEQLSNLLNLPTRVIVVWFQNARQKARK [D27S]: the abundance fitness was -0.077 ± 0.081.

With SSRTRFTDYQLRVLQDFFDANAYPKDAEFEQLSNLLNLPTRVIVVWFQNARQKARK [D27A], the abundance fitness was -0.117 ± 0.071.

SSRTRFTDYQLRVLQDFFDANAYPKDPEFEQLSNLLNLPTRVIVVWFQNARQKARK [D27P]: the abundance fitness was -0.388 ± 0.1.

SSRTRFTDYQLRVLQDFFDANAYPKDIEFEQLSNLLNLPTRVIVVWFQNARQKARK [D27I]: the abundance fitness was -0.17 ± 0.15.

For the variant SSRTRFTDYQLRVLQDFFDANAYPKDCEFEQLSNLLNLPTRVIVVWFQNARQKARK [D27C], the abundance fitness is -0.294 ± 0.11.

Turning to SSRTRFTDYQLRVLQDFFDANAYPKDGEFEQLSNLLNLPTRVIVVWFQNARQKARK [D27G], the abundance fitness came to 0.095 ± 0.069.

For the variant SSRTRFTDYQLRVLQDFFDANAYPKDKEFEQLSNLLNLPTRVIVVWFQNARQKARK [D27K], the abundance fitness was -0.113 ± 0.1.

With SSRTRFTDYQLRVLQDFFDANAYPKDTEFEQLSNLLNLPTRVIVVWFQNARQKARK [D27T], the abundance fitness was -0.078 ± 0.091.

Take SSRTRFTDYQLRVLQDFFDANAYPKDREFEQLSNLLNLPTRVIVVWFQNARQKARK [D27R]: the abundance fitness is -0.147 ± 0.071.

As to SSRTRFTDYQLRVLQDFFDANAYPKDNEFEQLSNLLNLPTRVIVVWFQNARQKARK [D27N], the abundance fitness was -0.063 ± 0.15.

SSRTRFTDYQLRVLQDFFDANAYPKDMEFEQLSNLLNLPTRVIVVWFQNARQKARK [D27M]: the abundance fitness is -0.037 ± 0.088.

Take SSRTRFTDYQLRVLQDFFDANAYPKPDEFEQLSNLLNLPTRVIVVWFQNARQKARK [D26P]: the abundance fitness was -0.163 ± 0.14.

For the variant SSRTRFTDYQLRVLQDFFDANAYPKMDEFEQLSNLLNLPTRVIVVWFQNARQKARK [D26M], the abundance fitness came out at 0.018 ± 0.2.

For SSRTRFTDYQLRVLQDFFDANAYPKVDEFEQLSNLLNLPTRVIVVWFQNARQKARK [D26V], the abundance fitness is -0.055 ± 0.12.

On to SSRTRFTDYQLRVLQDFFDANAYPKIDEFEQLSNLLNLPTRVIVVWFQNARQKARK [D26I], for which the abundance fitness came to 0.038 ± 0.21.

Regarding SSRTRFTDYQLRVLQDFFDANAYPKTDEFEQLSNLLNLPTRVIVVWFQNARQKARK [D26T], the abundance fitness stood at 0.021 ± 0.12.

On to SSRTRFTDYQLRVLQDFFDANAYPKRDEFEQLSNLLNLPTRVIVVWFQNARQKARK [D26R], for which the abundance fitness was -0.16 ± 0.083.

With SSRTRFTDYQLRVLQDFFDANAYPKFDEFEQLSNLLNLPTRVIVVWFQNARQKARK [D26F], the abundance fitness was -0.332 ± 0.22.

Take SSRTRFTDYQLRVLQDFFDANAYPKGDEFEQLSNLLNLPTRVIVVWFQNARQKARK [D26G]: the abundance fitness is -0.247 ± 0.096.

As to SSRTRFTDYQLRVLQDFFDANAYPKCDEFEQLSNLLNLPTRVIVVWFQNARQKARK [D26C], the abundance fitness was -0.506 ± 0.2.

For the variant SSRTRFTDYQLRVLQDFFDANAYPKEDEFEQLSNLLNLPTRVIVVWFQNARQKARK [D26E], the abundance fitness was -0.214 ± 0.14.

Consider SSRTRFTDYQLRVLQDFFDANAYPKHDEFEQLSNLLNLPTRVIVVWFQNARQKARK [D26H], for which the abundance fitness is -0.683 ± 0.26.

In the case of SSRTRFTDYQLRVLQDFFDANAYPKWDEFEQLSNLLNLPTRVIVVWFQNARQKARK [D26W], the abundance fitness is -0.376 ± 0.14.

Take SSRTRFTDYQLRVLQDFFDANAYPKKDEFEQLSNLLNLPTRVIVVWFQNARQKARK [D26K]: the abundance fitness is -0.1 ± 0.19.

SSRTRFTDYQLRVLQDFFDANAYPKLDEFEQLSNLLNLPTRVIVVWFQNARQKARK [D26L]: the abundance fitness was -0.307 ± 0.11.

Turning to SSRTRFTDYQLRVLQDFFDANAYPKQDEFEQLSNLLNLPTRVIVVWFQNARQKARK [D26Q], the abundance fitness was -0.188 ± 0.22.

Turning to SSRTRFTDYQLRVLQDFFDANAYPKYDEFEQLSNLLNLPTRVIVVWFQNARQKARK [D26Y], the abundance fitness is -0.105 ± 0.15.

Turning to SSRTRFTDYQLRVLQDFFDANAYPKSDEFEQLSNLLNLPTRVIVVWFQNARQKARK [D26S], the abundance fitness is -0.219 ± 0.12.

SSRTRFTDYQLRVLQDFFDANHYPKDDEFEQLSNLLNLPTRVIVVWFQNARQKARK [A22H]: the abundance fitness is -0.125 ± 0.079.

Consider SSRTRFTDYQLRVLQDFFDANNYPKDDEFEQLSNLLNLPTRVIVVWFQNARQKARK [A22N], for which the abundance fitness was -0.024 ± 0.081.

Consider SSRTRFTDYQLRVLQDFFDANYYPKDDEFEQLSNLLNLPTRVIVVWFQNARQKARK [A22Y], for which the abundance fitness was -0.196 ± 0.098.

Consider SSRTRFTDYQLRVLQDFFDANFYPKDDEFEQLSNLLNLPTRVIVVWFQNARQKARK [A22F], for which the abundance fitness is -0.353 ± 0.1.
